The labels stand for the following.
B1: F010301593 (VHH)
VHH: EVQLVESGGGLVQAGGSLRLSCAASVRPFSTSAMGWFRQAPEKEREAVAGILWNGIVTYYADSVKGRFTISRDNAKNEVYLQMNKLKPEDTAVYYCALDKDYGGRSFSAYEYEYWGQGTLVTVSS
notes: R96K vs F0103362B08 (Kabat)
B2: F010301609 (VHH)
VHH: B1 VHH with K100R, Y110Q
notes: Y100fQ vs F0103362B08 (Kabat)
B3: F010301604 (VHH)
VHH: B1 VHH with K100R, R105Q
notes: R100aQ vs F0103362B08 (Kabat)
B4: F010301617 (VHH)
VHH: B1 VHH with K100R, F107Q
notes: F100cQ vs F0103362B08 (Kabat)
B5: F010301598 (VHH)
VHH: B1 VHH with K100R, G103Q
notes: G99Q vs F0103362B08 (Kabat)
B6: F010301595 (VHH)
VHH: B1 VHH with K100R, D101A
notes: D97A vs F0103362B08 (Kabat)
B7: F010301612 (VHH)
VHH: B1 VHH with K100R, Y110T
notes: Y100fT vs F0103362B08 (Kabat)
B8: F010301619 (VHH)
VHH: B1 VHH with K100R, F107K
notes: F100cK vs F0103362B08 (Kabat)
B9: F010301607 (VHH)
VHH: B1 VHH with K100R, Y110A
notes: Y100fA vs F0103362B08 (Kabat)
B10: F010301627 (VHH)
VHH: B1 VHH with G50A, K100R
notes: G50A vs F0103362B08 (Kabat)
B11: F010301596 (VHH)
VHH: B1 VHH with K100R, G103A
notes: G99A vs F0103362B08 (Kabat)
B12: F010301594 (VHH)
VHH: B1 VHH with K100R, R105K
notes: R100aK vs F0103362B08 (Kabat)
B13: F010301629 (VHH)
VHH: B1 VHH with G50S, K100R
notes: G50S vs F0103362B08 (Kabat)
B14: F010301621 (VHH)
VHH: B1 VHH with K100R, Y110G
notes: Y100fG vs F0103362B08 (Kabat)
B15: F010301622 (VHH)
VHH: B1 VHH with K100R, Y110D
notes: Y100fD vs F0103362B08 (Kabat)
B16: F010301618 (VHH)
VHH: B1 VHH with K100R, Y114H
notes: Y102H vs F0103362B08 (Kabat)
B17: F010301606 (VHH)
VHH: B1 VHH with K100R, Y110K
notes: Y100fK vs F0103362B08 (Kabat)

Residue numbers refer to the chain shown, from its start.

For one experiment, the target named is T1, huNav1.7α + β1-β2-β3 (human, UniProt Q15858 1-1988; A5A6L6 19-218; O60939 30-215; Q2KI11 23-215).
T1 construct: Cell line (CHO FlpIn, HEK FlpIn, transient HEK293T) is named under assay; also called huNav1.7-beta1-beta2-beta3; human Nav1.7α with Navβ1, Navβ2 and Navβ3
The experiment can be described thus: binding FACS, CHO FlpIn cells. The gist of the method: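 Cells at 1×10^5 per well incubated 30 min at 4 °C with purified FLAG3-tagged ISVD in FACS buffer (PBS, 10% FBS, NaN₃); bound ISVD detected via murine anti-Flag by flow cytometry, dead cells excluded with 1 μg/mL propidium iodide.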
As for B1, the EC50 was determined as 0.11 µM.

For the molecule B2, the EC50 was found to be 0.19 µM.

Turning to B3, the EC50 amounted to 0.19 µM.

With B4, the EC50 stood at 0.17 µM.

Take B5: the EC50 was found to be 0.089 µM.

On to B6, for which the EC50 was 0.062 µM.

On to B7, for which the EC50 stood at 0.17 µM.

Consider B8, for which the EC50 amounted to 0.18 µM.

B9: the EC50 is 0.09 µM.

B10: the EC50 was 0.076 µM.

As to B11, the EC50 worked out at 0.14 µM.

For the molecule B12, the EC50 is 0.11 µM.

Consider B13, for which the EC50 worked out at 0.12 µM.

For the molecule B14, the EC50 came out at 0.15 µM.

With B15, the EC50 was found to be 0.17 µM.

For the molecule B16, the EC50 was 0.19 µM.

As for B17, the EC50 stood at 0.065 µM.

The next experiment concerns the target T2, huNav1.7α + β1 (HEKa/β1) (human, UniProt Q15858 1-1988; Q07699 19-218).
T2 construct: also called HEKa/β1 huNav1.7α
The experiment can be described thus: binding FACS, HEKa/β1 cells. As for the experimental part: Binding of the ISVDs to cell-expressed Nav1.7α was detected via murine anti-Flag (Sigma, catalog #F1804). Briefly, cells were resuspended in FACS buffer (PBS, 10% FBS, NaN₃) and transferred to a 96-well V-bottom plate at 1×10^5 cells/well. Purified FLAG3-tagged ISVD was diluted in FACS buffer and added to the cells for 30 minutes at 4° C. […] Prior to the read-out, the samples were resuspended in 1 μg/mL propidium iodide (Sigma, catalog #P4170) to exclude dead cells. Between each step, the cells were centrifuged for 5 minutes at 200 grams and washed with 100 μL/well FACS buffer.
Turning to B1, the EC50 turned out to be 0.04 µM.

Regarding B2, the EC50 was 0.037 µM.

B3: the EC50 came out at 0.052 µM.

Turning to B4, the EC50 came to 0.044 µM.

With B5, the EC50 was determined as 0.029 µM.

B6: the EC50 worked out at 0.017 µM.

As for B7, the EC50 was found to be 0.044 µM.

Consider B8, for which the EC50 is 0.047 µM.

With B9, the EC50 came out at 0.03 µM.

In the case of B10, the EC50 is 0.023 µM.

For the molecule B11, the EC50 was 0.05 µM.

Turning to B12, the half-maximal effective concentration (EC50) amounted to 0.029 µM.

Regarding B13, the EC50 was determined as 0.042 µM.

With B14, the EC50 was found to be 0.034 µM.

With B15, the EC50 worked out at 0.04 µM.

Regarding B16, the EC50 came to 0.039 µM.

In the case of B17, the EC50 came out at 0.024 µM.

In general, EC50 refers to the concentration giving half of the maximal effect.

Values taken from patent US20240002497A1 (Merck Sharp & Dohme, published 2024).
